Experiments:
Experiment in all cases: SEC
[1] = target: Chimeric IN F-F-H (NTD and CCD of FIV, CTD of HIV-1) (FIV (Petaluma) | HIV-1) (UniProt P12497)
[2] = target: Chimeric IN H-F-F (NTD of HIV-1, CCD and CTD of FIV) (HIV-1 | FIV (Petaluma)) (UniProt P12497)
[3] = target: Chimeric IN F-H-H (NTD of FIV, CCD and CTD of HIV-1) (FIV (Petaluma) | HIV-1) (UniProt P12497)
[4] = target: Chimeric IN F-H-F (NTD and CTD of FIV, CCD of HIV-1) (FIV (Petaluma) | HIV-1) (UniProt P12497)

**Q.** With “Chimeric IN F-F-H (NTD and CCD of FIV, CTD of HIV-1) (from UniProt P12497 211-289) (enzyme)” as the substance, how does the stoichiometry N [1] read?
**A.** 2

**Q.** For “Chimeric IN H-F-F (NTD of HIV-1, CCD and CTD of FIV) (from UniProt P12497 2-52) (enzyme)”, which stoichiometry N [2] is on record?
**A.** 2

**Q.** For “Chimeric IN F-H-H (NTD of FIV, CCD and CTD of HIV-1) (from UniProt P12497) (enzyme)”, which stoichiometry N [3] is on record?
**A.** 2

**Q.** How did the stoichiometry N [4] turn out when “Chimeric IN F-H-F (NTD and CTD of FIV, CCD of HIV-1) (from UniProt P12497 53-210) (enzyme)” was run?
**A.** 2
